Biological target: HARE(ΔM3) single-motif deletion cytoplasmic domain mutant lacking NPLY2519
Assay: co-IP; HARE variants precipitated from cell lysate (300 μg protein) with goat anti-V5 Ab (2 μg/ml) and Protein A/G Plus Agarose, 4°C; blot with anti-tERK1/2 Ab; cells incubated with or without 10 μg/ml (709 nM) UFH for 20 min; Lysis Buffer with 0.5% Nonidet P-40

| percent decrease of association (tERK:HARE ratio) against WT HARE [%] | Substance |
| --- | --- |
| 67 | ERK2 (of ERK1/2, p44/42) (from UniProt P28482 1-360) (enzyme) |
| 67 | ERK1 (of ERK1/2, p44/42) (from UniProt P27361 1-379) (enzyme) |
